Consider two molecules from publication PMC4490372, “Architecture of TFIIIC and its role in RNA polymerase III pre-initiation complex assembly” (Nature Communications, 2015).

Experiment [1] has as its target T1, τ131 (123–566) E498K (S. cerevisiae, UniProt P33339 123-566, E498K).
T1 construct: source: E. coli, purified by the same method as the wild type; not shown: His6, N-terminal, cleaved
T1 sequence (looked up): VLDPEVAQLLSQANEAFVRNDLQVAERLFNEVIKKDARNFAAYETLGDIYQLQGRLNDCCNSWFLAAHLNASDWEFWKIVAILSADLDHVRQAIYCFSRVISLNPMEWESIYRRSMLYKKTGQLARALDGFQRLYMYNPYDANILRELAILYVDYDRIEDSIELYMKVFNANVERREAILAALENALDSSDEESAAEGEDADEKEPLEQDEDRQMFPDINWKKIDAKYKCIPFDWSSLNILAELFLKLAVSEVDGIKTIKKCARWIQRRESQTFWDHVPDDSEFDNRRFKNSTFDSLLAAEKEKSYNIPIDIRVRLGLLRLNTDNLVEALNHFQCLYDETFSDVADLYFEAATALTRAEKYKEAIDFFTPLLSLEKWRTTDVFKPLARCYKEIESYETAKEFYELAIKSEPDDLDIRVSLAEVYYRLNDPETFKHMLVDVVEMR
Nature of the experiment: pull-down; 15 μg GST-τ138 (641–693) on Glutathione Sepharose 4B; 900 nM wild-type or mutant τ131; 50 mM Tris pH 7.5, 150 mM NaCl, 2 mM DTT, 0.1% Tween20; 4 °C, 4 h. To be noted: both partners purified.

Experiment [2] addresses T2, τ131 (123–566) E472K (S. cerevisiae, UniProt P33339 123-566, E472K).
T2 construct: source: E. coli, purified by the same method as the wild type; not shown: His6, N-terminal, cleaved
T2 sequence (looked up): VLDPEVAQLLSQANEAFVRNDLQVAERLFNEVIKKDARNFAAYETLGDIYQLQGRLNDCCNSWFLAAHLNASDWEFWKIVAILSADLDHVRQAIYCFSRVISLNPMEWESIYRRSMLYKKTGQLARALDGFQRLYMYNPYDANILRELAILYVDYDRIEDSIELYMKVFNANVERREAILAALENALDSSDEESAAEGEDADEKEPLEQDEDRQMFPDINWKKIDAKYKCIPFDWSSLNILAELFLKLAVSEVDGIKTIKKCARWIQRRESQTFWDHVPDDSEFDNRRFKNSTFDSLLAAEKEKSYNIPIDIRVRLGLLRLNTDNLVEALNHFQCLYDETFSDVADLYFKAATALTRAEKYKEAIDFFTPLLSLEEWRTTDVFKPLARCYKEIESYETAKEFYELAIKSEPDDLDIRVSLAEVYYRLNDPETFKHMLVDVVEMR
The experiment is described as above. To be noted: both partners purified.

Experiment [3] addresses T3, τ131 (123–566) E497K (S. cerevisiae, UniProt P33339 123-566, E497K).
T3 construct: source: E. coli, purified by the same method as the wild type; not shown: His6, N-terminal, cleaved
T3 sequence (looked up): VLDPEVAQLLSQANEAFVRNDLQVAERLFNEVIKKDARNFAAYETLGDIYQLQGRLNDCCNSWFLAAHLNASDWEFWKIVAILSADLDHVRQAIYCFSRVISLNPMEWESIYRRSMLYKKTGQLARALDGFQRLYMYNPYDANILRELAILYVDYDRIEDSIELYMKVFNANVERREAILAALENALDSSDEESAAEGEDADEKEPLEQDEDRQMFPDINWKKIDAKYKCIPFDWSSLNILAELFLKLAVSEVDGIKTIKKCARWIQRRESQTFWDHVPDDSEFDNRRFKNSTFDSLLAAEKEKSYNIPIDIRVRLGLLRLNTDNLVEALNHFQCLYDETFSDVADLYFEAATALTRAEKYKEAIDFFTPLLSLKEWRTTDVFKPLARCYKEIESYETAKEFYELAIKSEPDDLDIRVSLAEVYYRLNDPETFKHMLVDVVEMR
The description is as above. The conditions noted are these: both partners purified.

In experiment [4] the target is T4, GST-tagged τ131 (123–566) E497K (S. cerevisiae, UniProt P33339 123-566, E497K).
T4 construct: source: E. coli BL21 (DE3) Gold, purified (GST column, S200 SEC)
T4 sequence (looked up): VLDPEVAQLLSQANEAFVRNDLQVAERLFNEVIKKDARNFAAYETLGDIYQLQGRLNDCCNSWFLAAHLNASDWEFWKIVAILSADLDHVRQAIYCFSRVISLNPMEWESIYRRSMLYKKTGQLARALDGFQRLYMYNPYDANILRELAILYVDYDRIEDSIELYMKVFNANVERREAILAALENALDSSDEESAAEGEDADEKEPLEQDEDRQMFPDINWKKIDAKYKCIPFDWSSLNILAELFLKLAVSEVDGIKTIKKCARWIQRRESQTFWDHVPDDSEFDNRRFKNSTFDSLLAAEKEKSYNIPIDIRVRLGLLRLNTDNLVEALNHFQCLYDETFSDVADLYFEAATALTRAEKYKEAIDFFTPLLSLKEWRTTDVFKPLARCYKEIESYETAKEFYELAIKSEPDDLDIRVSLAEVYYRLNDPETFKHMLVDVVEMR
In words: pull-down; 15 μg GST-tagged τ131 on Glutathione Sepharose 4B; 300 nM τ138 or Bdp1, or 1 μM Brf1–TBP; 50 mM Tris pH 7.5, 150 mM NaCl, 2 mM DTT, 0.1% Tween20; 4 °C, 4 h. The conditions noted are these: both partners purified.

In experiment [5] the target is T5, GST-tagged τ131 (123–566) E498K (S. cerevisiae, UniProt P33339 123-566, E498K).
T5 construct: source: E. coli BL21 (DE3) Gold, purified (GST column, S200 SEC)
T5 sequence (looked up): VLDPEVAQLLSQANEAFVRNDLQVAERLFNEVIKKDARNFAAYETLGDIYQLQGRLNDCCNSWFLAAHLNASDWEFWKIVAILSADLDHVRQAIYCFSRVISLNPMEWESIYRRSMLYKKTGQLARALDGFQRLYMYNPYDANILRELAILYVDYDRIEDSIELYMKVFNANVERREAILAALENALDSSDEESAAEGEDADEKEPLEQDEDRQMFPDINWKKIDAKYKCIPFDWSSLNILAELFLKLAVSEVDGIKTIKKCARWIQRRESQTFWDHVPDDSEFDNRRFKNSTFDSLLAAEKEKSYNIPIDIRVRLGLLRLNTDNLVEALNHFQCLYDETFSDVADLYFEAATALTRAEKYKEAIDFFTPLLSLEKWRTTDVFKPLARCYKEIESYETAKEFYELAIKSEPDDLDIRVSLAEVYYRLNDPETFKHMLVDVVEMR
The description is as above. The conditions noted are these: both partners purified.

The target of experiment [6] is T6, GST-tagged τ131 (123–566) E472K (S. cerevisiae, UniProt P33339 123-566, E472K).
T6 construct: source: E. coli BL21 (DE3) Gold, purified (GST column, S200 SEC)
T6 sequence (looked up): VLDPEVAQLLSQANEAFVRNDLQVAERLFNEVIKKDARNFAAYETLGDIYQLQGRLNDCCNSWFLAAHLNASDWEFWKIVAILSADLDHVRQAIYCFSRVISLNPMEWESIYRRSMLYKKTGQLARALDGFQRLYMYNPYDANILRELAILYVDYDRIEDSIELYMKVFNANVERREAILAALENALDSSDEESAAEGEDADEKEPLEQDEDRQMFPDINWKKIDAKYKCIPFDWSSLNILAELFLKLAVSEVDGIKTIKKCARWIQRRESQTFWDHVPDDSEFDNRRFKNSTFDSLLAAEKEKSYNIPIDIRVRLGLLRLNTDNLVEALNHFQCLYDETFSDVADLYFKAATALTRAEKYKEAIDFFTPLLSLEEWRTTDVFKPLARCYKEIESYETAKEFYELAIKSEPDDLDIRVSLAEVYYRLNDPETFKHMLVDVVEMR
The experiment is described as above. To be noted: both partners purified.

Experiment [7] deals with T1, τ131 (123–566) E498K. Nature of the experiment: ITC; MicroCal ITC200; 15 μM τ138 in the cell, 150 μM τ131 in the syringe; 20 mM Tris pH 7.5, 150 mM NaCl, 2 mM β-mercaptoethanol; 25 °C. The conditions noted are these: both partners purified.
In experiment [8] the target is T7, τ131 (123–566), TPR array, wild type (S. cerevisiae, UniProt P33339 123-566).
T7 construct: also called τ131 TPR array; source: E. coli BL21 Star (DE3) pRARE, purified (Ni-NTA, TEV cleavage, S200 SEC); not shown: His6, N-terminal, cleaved
T7 sequence (looked up): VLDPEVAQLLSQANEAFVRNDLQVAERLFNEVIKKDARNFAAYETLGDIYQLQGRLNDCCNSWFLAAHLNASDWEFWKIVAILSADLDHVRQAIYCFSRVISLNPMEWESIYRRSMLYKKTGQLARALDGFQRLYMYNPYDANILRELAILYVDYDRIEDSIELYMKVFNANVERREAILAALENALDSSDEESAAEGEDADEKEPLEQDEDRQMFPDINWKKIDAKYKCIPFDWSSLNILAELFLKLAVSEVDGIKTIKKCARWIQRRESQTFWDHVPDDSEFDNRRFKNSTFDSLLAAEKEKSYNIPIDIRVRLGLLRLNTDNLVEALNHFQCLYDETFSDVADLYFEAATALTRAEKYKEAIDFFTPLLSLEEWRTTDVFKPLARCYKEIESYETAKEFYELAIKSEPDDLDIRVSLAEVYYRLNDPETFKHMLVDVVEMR
The description is as above. To be noted: both partners purified.

Experiment [9] deals with T2, τ131 (123–566) E472K. The experiment is described as above. To be noted: both partners purified.
Experiment [10] addresses T3, τ131 (123–566) E497K. The description is as above. To be noted: both partners purified.
For experiment [11], the target named is T8, τ131 (123–566) E472K (S. cerevisiae, UniProt P33339 123-566, E472K).
T8 sequence: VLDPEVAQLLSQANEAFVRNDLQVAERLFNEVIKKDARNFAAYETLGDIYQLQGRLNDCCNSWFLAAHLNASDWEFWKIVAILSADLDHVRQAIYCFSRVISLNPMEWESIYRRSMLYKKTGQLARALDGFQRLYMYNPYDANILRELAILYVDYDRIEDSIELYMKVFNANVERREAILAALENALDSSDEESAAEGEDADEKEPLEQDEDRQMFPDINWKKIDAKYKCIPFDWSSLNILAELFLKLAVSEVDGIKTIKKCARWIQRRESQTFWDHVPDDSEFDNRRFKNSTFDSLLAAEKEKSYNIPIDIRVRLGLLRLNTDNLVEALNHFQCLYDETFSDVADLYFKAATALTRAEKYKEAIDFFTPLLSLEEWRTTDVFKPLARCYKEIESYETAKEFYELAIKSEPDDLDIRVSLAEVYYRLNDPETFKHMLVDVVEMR
Nature of the experiment: ITC.

Experiment [12] deals with T9, τ131 (123–566) E497K (S. cerevisiae, UniProt P33339 123-566, E497K).
T9 sequence: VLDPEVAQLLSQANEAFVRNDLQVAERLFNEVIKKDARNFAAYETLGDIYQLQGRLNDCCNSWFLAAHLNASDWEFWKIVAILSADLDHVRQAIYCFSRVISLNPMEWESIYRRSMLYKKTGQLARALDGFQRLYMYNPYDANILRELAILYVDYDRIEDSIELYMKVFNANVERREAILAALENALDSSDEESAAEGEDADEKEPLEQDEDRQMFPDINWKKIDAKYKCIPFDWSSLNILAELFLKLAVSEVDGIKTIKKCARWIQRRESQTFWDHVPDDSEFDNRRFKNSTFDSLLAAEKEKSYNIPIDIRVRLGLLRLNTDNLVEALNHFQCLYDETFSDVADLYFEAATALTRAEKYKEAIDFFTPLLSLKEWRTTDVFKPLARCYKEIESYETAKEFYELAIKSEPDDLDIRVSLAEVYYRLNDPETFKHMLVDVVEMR
Nature of the experiment: ITC.

Experiment [13] has as its target T10, τ131 (123–566) E498K (S. cerevisiae, UniProt P33339 123-566, E498K).
T10 sequence: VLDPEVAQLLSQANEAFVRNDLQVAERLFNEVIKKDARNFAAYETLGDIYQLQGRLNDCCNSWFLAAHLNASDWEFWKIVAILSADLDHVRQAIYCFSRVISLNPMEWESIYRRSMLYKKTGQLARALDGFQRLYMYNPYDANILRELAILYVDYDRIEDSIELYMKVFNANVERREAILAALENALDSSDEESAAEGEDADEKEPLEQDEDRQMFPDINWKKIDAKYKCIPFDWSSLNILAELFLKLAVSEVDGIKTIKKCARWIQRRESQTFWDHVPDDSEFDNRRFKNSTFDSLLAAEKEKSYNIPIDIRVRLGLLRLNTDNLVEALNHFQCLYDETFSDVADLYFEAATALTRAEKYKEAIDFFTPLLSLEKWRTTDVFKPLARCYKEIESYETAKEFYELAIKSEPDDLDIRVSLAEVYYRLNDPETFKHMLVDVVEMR
Nature of the experiment: ITC.

B1: GST-τ138 (641–693) (domain or fragment, S. cerevisiae, UniProt P34111 641-693, looked up)
chain: SKKATFTDVIHDTEIYFFDQTEKNRFHRGKKSVERIRKFQNRQKNAKIKASDD
notes: also called GST-tagged τ138; source: E. coli BL21 (DE3) Gold, purified (GST column, S200 SEC)
B1: the binding result with τ131 (123–566) E498K [1], in the experiment with τ131 (123–566) E472K [2] and with τ131 (123–566) E497K [3] was “binds” throughout.

B2: τ138 (546–693), eWH-τIR (domain or fragment, S. cerevisiae, UniProt P34111 546-693, looked up)
chain: SARSLRSLQRQRAILKVMNTIGGVAYLREQFYESVSKYMGSTTTLDKKTVRGDVDLMVESEKLGARTEPVSGRKIIFLPTVGEDAIQRYILKEKDSKKATFTDVIHDTEIYFFDQTEKNRFHRGKKSVERIRKFQNRQKNAKIKASDD
notes: the cloning of this construct is not described; also called τ138 (eWH-τIR); central region of τ138; source: purified; expression of this construct not described
B2: the binding result (in experiment [4]; in experiment [5]; in experiment [6]; with τ131 (123–566) E498K [7]; in the experiment with τ131 (123–566) E472K [9]; in the experiment with τ131 (123–566) E497K [10]) was “binds” in each case. Besides, the Kd in [8] was about 100 nM; in the experiment with τ131 (123–566) E472K [11], 415 nM; with τ131 (123–566) E497K [12], 99 nM; with τ131 (123–566) E498K [13], 971 nM.
